{"source": "patent US20240200091A1", "about": "“USE OF PROTOPORPHYRINOGEN OXIDASE” (BEIJING DABEINONG BIOTECHNOLOGY CO., LTD., priority 2021, published 2024)", "type_in_all_cases": "in vivo", "key": {"transgenic maize plants [1]": {"tested_on": "transgenic maize plants", "test": "oxyfluorfen tolerance of transgenic maize plants (spray, grade of pesticide damage)", "settings": "for tolerance to oxyfluorfen: maize; for The grade of pesticide damage/plant: number of plants of grade 0 / The grade of pesticide damage/plant: number of plants of grade 1 / The grade of pesticide damage/plant: number of plants of grade 2 / The grade of pesticide damage/plant: number of plants of grade 3: 7 DAT, 16 maize plants per genotype"}, "transgenic maize plants [2]": {"tested_on": "transgenic maize plants", "test": "flumioxazin tolerance of transgenic maize plants (spray, grade of pesticide damage)", "settings": "for The grade of pesticide damage/plant: number of plants of grade 0 / The grade of pesticide damage/plant: number of plants of grade 1 / The grade of pesticide damage/plant: number of plants of grade 2 / The grade of pesticide damage/plant: number of plants of grade 3: 7 DAT, 16 maize plants per genotype"}, "transgenic maize plants [3]": {"tested_on": "transgenic maize plants", "test": "saflufenacil tolerance of transgenic maize plants (spray, grade of pesticide damage)", "settings": "for tolerance to saflufenacil: maize; for The grade of pesticide damage/plant: number of plants of grade 0 / The grade of pesticide damage/plant: number of plants of grade 1 / The grade of pesticide damage/plant: number of plants of grade 2 / The grade of pesticide damage/plant: number of plants of grade 3: 7 DAT, 16 maize plants per genotype"}, "[4]": {"settings": "oxyfluorfen 360 g ai/ha (2x field concentration)"}, "[5]": {"settings": "oxyfluorfen 720 g ai/ha (4x field concentration)"}, "[6]": {"settings": "flumioxazin 120 g ai/ha (2x field concentration)"}, "[7]": {"settings": "flumioxazin 240 g ai/ha (4x field concentration)"}, "[8]": {"settings": "saflufenacil 50 g ai/ha (2x field concentration)"}, "[9]": {"settings": "saflufenacil 100 g ai/ha (4x field concentration)"}}}
{"molecule": "PPO1B: nucleotide sequence encoding protoporphyrinogen oxidase PPO1, maize common codon usage bias (nucleic acid, The nucleotide sequence of PPO1B) DNA: ATGAAAGCGTTGGTTCTTTACAGTACAAGAGATGGTCAGACCCACGCCATTGCGAGCTATATCGCAAACTGCATGAAGGAGAAGTATGAATGTGACGTCATTGATCTCTTGCACGCGCAGCATGTCACCCTTAGCCGCTACGACAAGGTCCTTGTTGGGGCATCGATACGCTATGGCCATTTCAACGCCGTGCTGGACAAATTTGTTAAGCAGAATATACAACAGCTGAACTCCATGCCTTCTGCATTCTTCGCGGTAAATCTGACCGCTCGTAAGCCAGAAAAAAGGACACCACAAACAAATTCATACGTCAGAAAGTTCCTCCTAGGAACGCCGTGGAAGCCCGCCATGTGCGGTGTTTTTGCTGGCGCCTTGCGATACCCTCGGTATCGGTGGGTGGACAAGGTGATGATCCAATTAATCATGAGGATGACGGGGGGCGAGACTGATACTTCTAAAGAAGTGGAGTACACTGATTGGGAGCAGGTGAAAAAATTTGCTGAGGACTTCGGAAAGCTCTCCTACAAGAAGACGCTGTGA", "values": [{"measurement": "tolerance to oxyfluorfen", "setting": "transgenic maize plants [1]; oxyfluorfen at four-fold field concentration (720 g ai/ha)", "value": "high-resistant tolerance"}, {"measurement": "tolerance to oxyfluorfen", "setting": "transgenic maize plants [1]; oxyfluorfen at two-fold field concentration (360 g ai/ha)", "value": "high-resistant tolerance"}, {"measurement": "The grade of pesticide damage/plant: number of plants of grade 0", "setting": "transgenic maize plants [1]; [4]", "value": 16}, {"measurement": "The grade of pesticide damage/plant: number of plants of grade 1", "setting": "transgenic maize plants [1]; [4]", "value": 0}, {"measurement": "The grade of pesticide damage/plant: number of plants of grade 2", "setting": "transgenic maize plants [1]; [4]", "value": 0}, {"measurement": "The grade of pesticide damage/plant: number of plants of grade 3", "setting": "transgenic maize plants [1]; [4]", "value": 0}, {"measurement": "The grade of pesticide damage/plant: number of plants of grade 0", "setting": "transgenic maize plants [1]; [5]", "value": 16}, {"measurement": "The grade of pesticide damage/plant: number of plants of grade 1", "setting": "transgenic maize plants [1]; [5]", "value": 0}, {"measurement": "The grade of pesticide damage/plant: number of plants of grade 2", "setting": "transgenic maize plants [1]; [5]", "value": 0}, {"measurement": "The grade of pesticide damage/plant: number of plants of grade 3", "setting": "transgenic maize plants [1]; [5]", "value": 0}, {"measurement": "The grade of pesticide damage/plant: number of plants of grade 0", "setting": "transgenic maize plants [2]; [6]", "value": 16}, {"measurement": "The grade of pesticide damage/plant: number of plants of grade 1", "setting": "transgenic maize plants [2]; [6]", "value": 0}, {"measurement": "The grade of pesticide damage/plant: number of plants of grade 2", "setting": "transgenic maize plants [2]; [6]", "value": 0}, {"measurement": "The grade of pesticide damage/plant: number of plants of grade 3", "setting": "transgenic maize plants [2]; [6]", "value": 0}, {"measurement": "The grade of pesticide damage/plant: number of plants of grade 0", "setting": "transgenic maize plants [2]; [7]", "value": 16}, {"measurement": "The grade of pesticide damage/plant: number of plants of grade 1", "setting": "transgenic maize plants [2]; [7]", "value": 0}, {"measurement": "The grade of pesticide damage/plant: number of plants of grade 2", "setting": "transgenic maize plants [2]; [7]", "value": 0}, {"measurement": "The grade of pesticide damage/plant: number of plants of grade 3", "setting": "transgenic maize plants [2]; [7]", "value": 0}, {"measurement": "tolerance to flumioxazin", "setting": "transgenic maize plants [2]; maize, flumioxazin at different concentrations (120 and 240 g ai/ha)", "value": "high-resistant tolerance"}, {"measurement": "tolerance to saflufenacil", "setting": "transgenic maize plants [3]; saflufenacil at four-fold field concentration (100 g ai/ha)", "value": "high-resistant tolerance"}, {"measurement": "tolerance to saflufenacil", "setting": "transgenic maize plants [3]; saflufenacil at two-fold field concentration (50 g ai/ha)", "value": "high-resistant tolerance"}, {"measurement": "The grade of pesticide damage/plant: number of plants of grade 0", "setting": "transgenic maize plants [3]; [8]", "value": 16}, {"measurement": "The grade of pesticide damage/plant: number of plants of grade 1", "setting": "transgenic maize plants [3]; [8]", "value": 0}, {"measurement": "The grade of pesticide damage/plant: number of plants of grade 2", "setting": "transgenic maize plants [3]; [8]", "value": 0}, {"measurement": "The grade of pesticide damage/plant: number of plants of grade 3", "setting": "transgenic maize plants [3]; [8]", "value": 0}, {"measurement": "The grade of pesticide damage/plant: number of plants of grade 0", "setting": "transgenic maize plants [3]; [9]", "value": 16}, {"measurement": "The grade of pesticide damage/plant: number of plants of grade 1", "setting": "transgenic maize plants [3]; [9]", "value": 0}, {"measurement": "The grade of pesticide damage/plant: number of plants of grade 2", "setting": "transgenic maize plants [3]; [9]", "value": 0}, {"measurement": "The grade of pesticide damage/plant: number of plants of grade 3", "setting": "transgenic maize plants [3]; [9]", "value": 0}]}
